Substitutions are numbered along the chain they refer to. Numbers in names are those of the source. Values belong to the binder of their own block, whether it stands above or below them.
How the values were obtained:
PD-L1 = PD-L1 (UniProt Q9NZQ7 19-290, limits assumed); assay: flow cytometry binding to MDA231 cells, Cy3 goat anti-human IgG detection
Description: (§1) a) MDA231 cells are prepared in media at a concentration of 1×10⁶ cells/mL. [0411] b) Dilute antibody sample to an appropriate concentration. [0412] c) Transfer 50 μL, of cells into each well of 96 well V-bottom plate. [0413] d) Transfer 50 μL, of antibodies into wells of 96 well V-bottom plate. [0414] e) Incubate cell mixture for 60 min at room temperature. [0415] f) Spin cells down and wash twice with FACS buffer. [0416] g) Re-suspend cells in 100 μL, FACS buffer containing Cy3 conjugated goat anti-human (GAH) IgG (1:500) in each well. [0417] h) Incubate at room temperature for 30 min, and wash with FACS buffer×2.

CD55 [1] = molecular target: T1, CD55 (UniProt P08174 35-353, limits assumed); assay: as above
T1 construct: whole, on cells; also called CD55 on Rituximab resistant Raji cells (RRCL)
T1 sequence (looked up): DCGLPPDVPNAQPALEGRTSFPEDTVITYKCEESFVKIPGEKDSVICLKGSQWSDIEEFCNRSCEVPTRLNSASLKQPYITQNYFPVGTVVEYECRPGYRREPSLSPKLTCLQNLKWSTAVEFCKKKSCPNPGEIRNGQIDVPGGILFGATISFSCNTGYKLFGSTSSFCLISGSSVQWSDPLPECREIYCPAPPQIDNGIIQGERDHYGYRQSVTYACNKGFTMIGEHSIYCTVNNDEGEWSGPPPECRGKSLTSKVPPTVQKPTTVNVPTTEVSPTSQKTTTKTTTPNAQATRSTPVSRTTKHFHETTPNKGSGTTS
Description: as §1

CD55 [2] = molecular target: T1, CD55; assay: binding at 5 µg/ml, the baseline itself; format not stated
CD55 [3] = molecular target: T1, CD55; assay: binding at 5 µg/ml against the unmutated antibody (SEQ ID NO: 14 + 15); format not stated
CD20 = molecular target: T2, CD20 (UniProt P11836 1-297, limits assumed); assay: flow cytometry binding to CD20+ Raji cells, antibody titration, Cy3 goat anti-human IgG detection
T2 construct: whole, on cells; also called CD20 on Raji cells
T2 sequence (looked up): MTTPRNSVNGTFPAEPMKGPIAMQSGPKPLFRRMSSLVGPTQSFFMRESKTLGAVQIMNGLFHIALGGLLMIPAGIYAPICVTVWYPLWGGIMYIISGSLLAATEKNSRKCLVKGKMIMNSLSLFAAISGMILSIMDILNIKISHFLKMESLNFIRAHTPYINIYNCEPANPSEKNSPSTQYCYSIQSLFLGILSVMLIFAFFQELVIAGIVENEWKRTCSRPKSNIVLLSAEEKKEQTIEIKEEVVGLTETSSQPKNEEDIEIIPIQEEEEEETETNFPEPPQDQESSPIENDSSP

CD3 = molecular target: T3, CD3 (Homo sapiens (Human), UniProt P07766 23-207; P04234 22-171; P09693 23-182); assay: flow cytometry binding to CD3+ Jurkat cells, antibody titration, Cy3 goat anti-human IgG detection
T3 construct: also called CD3 on Jurkat cells
T3 sequence (P07766 23-207 limits assumed, chain 1 of 3): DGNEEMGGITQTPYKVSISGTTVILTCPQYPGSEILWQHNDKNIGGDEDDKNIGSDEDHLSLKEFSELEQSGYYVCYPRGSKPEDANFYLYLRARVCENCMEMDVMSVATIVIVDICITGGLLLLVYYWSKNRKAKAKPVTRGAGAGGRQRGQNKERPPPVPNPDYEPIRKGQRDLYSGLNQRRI
T3 sequence (P04234 22-171 limits assumed, chain 2 of 3): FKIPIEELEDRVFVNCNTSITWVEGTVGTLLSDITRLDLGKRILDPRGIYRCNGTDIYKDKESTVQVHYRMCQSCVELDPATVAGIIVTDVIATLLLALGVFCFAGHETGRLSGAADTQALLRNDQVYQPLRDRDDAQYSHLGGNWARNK
T3 sequence (P09693 23-182 limits assumed, chain 3 of 3): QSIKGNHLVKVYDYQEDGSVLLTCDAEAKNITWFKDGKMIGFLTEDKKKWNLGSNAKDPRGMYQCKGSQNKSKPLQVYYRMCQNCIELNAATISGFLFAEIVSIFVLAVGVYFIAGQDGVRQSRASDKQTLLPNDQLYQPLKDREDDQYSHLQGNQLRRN

Sequence of PD-L1 (Q9NZQ7 19-290 limits assumed): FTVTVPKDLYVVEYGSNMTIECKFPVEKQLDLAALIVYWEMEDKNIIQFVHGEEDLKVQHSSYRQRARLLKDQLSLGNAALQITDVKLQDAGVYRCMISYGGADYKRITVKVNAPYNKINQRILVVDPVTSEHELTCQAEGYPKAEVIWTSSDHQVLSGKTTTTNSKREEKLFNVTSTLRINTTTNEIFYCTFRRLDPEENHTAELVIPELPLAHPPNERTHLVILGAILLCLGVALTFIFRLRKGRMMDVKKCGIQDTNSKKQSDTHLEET

B3: parental anti-CD55 antibody (CD55 wt), monoclonal antibody having CD55VH (SEQ ID NO: 14 without any mutations) and the VL (SEQ ID NO: 15) (antibody, V domains shown)
VH: QVKLQESGGGLVQPGGSLKLSCAASGFTFSGYGMSWIRQTPDKRLEWVATINSGGSYTYYSDSVKGRFTISRDNVKNTLYLQMSSLKSEDTAMYYCARRNGTLYYYLMDYWGRGTLVTVSS
VL: QSVLTQPPSASGSPGQSVTISCTGTSSDVGGYNYVSWYQQHPGKAPKFMIYDVSKRPSGVSNRFSGSKSGNTASLTISGVQAEDEADYYCSSYTSASTVIFGGGTKLTVL
notes: Variable domains derived from a CD55 scFv; also called CD55VH + VL; CD55 parental Ab
Function remaining percentage (5 µg/ml) (CD55 [2]): 100%

B4: anti-CD55 antibody with CD55VH (SEQ ID NO: 14) T102G and VL (SEQ ID NO: 15) (antibody, V domains shown)
VH: B3 VH with T102G
VL: B3 VL
notes: also called Test 27
Function remaining percentage (5 µg/ml) (CD55 [3]): 17%

B5: anti-CD55 antibody with CD55VH (SEQ ID NO: 14) T102M and VL (SEQ ID NO: 15) (antibody, V domains shown)
VH: B3 VH with T102M
VL: B3 VL
notes: also called Test 26
Function remaining percentage (5 µg/ml) (CD55 [3]): 98%

B6: parental anti-CD20 IgG (Parental CD20) (antibody, V domains shown)
VH: QVQLQQPGAELVKPGASVKMSCKASGYTFTSYNMHWVKQTPGRGLEWIGAIYPGNGDTSYNQKFKGKATLTADKSSSTAYMQLSSLTSEDSAVYYCARSTYYGGDWYFNVWGAGTTVTVSA
VL: QIVLSQSPAILSASPGEKVTMTCRASSSVSYIHWFQQKPGSSPKPWIYATSNLASGVPVRFSGSGSGTSYSLTISRVEAEDAATYYCQQWTSNPPTFGGGTKLEIKR
notes: IgG; also called Rituximab; CD20 parental Ab
EC50 (read off the curve) (CD20): ~0.2 µg/mL
binding result (CD3): no binding (tested: 10 µg/ml)

B7: parental anti-CD3 IgG (Parental CD3) (antibody, V domains shown)
VH: QVQLQQSGAELARPGASVKMSCKASGYTFTSYTMHWVKQRPGQGLEWIGYINPSSGYTKYNQKFKDKATLTADKSSSTAYMQLSSLTSEDSAVYYCARWQDYDVYFDYWGQGTTLTVSS
VL: B6 VL with I32M, F35Y, V59A, T91S, I105T
notes: IgG; also called MAb 12F6; CD3 parental Ab
binding result (CD20): no binding (tested: 10 µg/ml)

B9: CD20 homodimer IgG containing the designed VH sequence (SEQ ID NO: 1) and the common VL sequence (SEQ ID NO: 3) (antibody, V domains shown)
VH: B6 VH with T87R
VL: B6 VL
notes: IgG homodimer with two VHa and two common VL; also called redesigned Rituximab; antibody A
EC50 (read off the curve) (CD20): ~0.4 µg/mL
binding result (CD3): no binding (tested: 10 µg/ml)

Other lines, results leading:

binding result (PD-L1): binds
B1: Anti-PD-L1 homodimer IgG (PD-L1 v1) containing the designed VH sequence (SEQ ID NO: 4) and the common VL sequence (SEQ ID NO: 6) (antibody, V domains shown)
VH: EVQLLESGGGLVEPGGSLRLSCAASGFTFSSYIMMWVRQAPGKGLEWVSSIYPSGGITFYADTVKGRFTISRDNSKNTLYLQMNSLRAEDTAVYYCARIKLGTVTTVDYWGEGTLVTVSS
VL: QSALTQPASVSGSPGQSITISCTGTSSDVGGYNYVSWYQQHPGKAPKLMIYDVSKRPSGVSNRFSGSKSGNTASLTISGLQAEDEADYYCSSYTSASTRIFGGGTKVTVLR
notes: Homodimer IgG; also called PDL1 homodimer version 1

binding result (CD55 [1]): binds
B2: Anti-CD55 homodimer IgG (CD55 v1) containing the designed VH sequence (SEQ ID NO: 5) and the common VL sequence (SEQ ID NO: 6) (antibody, V domains shown)
VH: B3 VH with Q13K, D42G
VL: B1 VL
notes: Homodimer IgG; also called CD55 homodimer version 1

binding result (CD20): no binding (tested: 10 µg/ml)
B8: CD3 homodimer IgG containing the designed VH sequence (SEQ ID NO: 2) and the common VL sequence (SEQ ID NO: 3) (antibody, V domains shown)
VH: B7 VH with Q1E, Q6E, Q43E, Q82E, Q111E
VL: B6 VL
notes: IgG homodimer with two VHb and two common VL; also called redesigned 12F6; antibody B
